{
  "source": "paper PMC10491252",
  "about": "(bioRxiv, 2023)",
  "key": {"[1]": {"target": "ERFE CLR* (center PGP of the collagen-like repeat mutated to SSS) (human) (UniProt Q4G0M1)", "assay": "AUC"}, "[2]": {"target": "ERFE CLR* (center PGP of the collagen-like repeat mutated to SSS) (human) (UniProt Q4G0M1)", "assay": "non-reducing SDS-PAGE"}, "[3]": {"target": "bone morphogenetic protein 6 (BMP6) (UniProt P22004)"}, "ERFE CLR*ΔC1Q (human) [4]": {"target": "ERFE CLR*ΔC1Q (human) (UniProt Q4G0M1)", "assay": "AUC"}, "ERFE CLR*ΔC1Q (human) [5]": {"target": "ERFE CLR*ΔC1Q (human) (UniProt Q4G0M1)", "assay": "non-reducing SDS-PAGE"}, "[6]": {"target": "bone morphogenetic protein 6 (BMP6) (UniProt P22004)", "remark": "listed apart in the source"}, "[7]": {"target": "bone morphogenetic protein 2 (BMP2) (UniProt P12643 283-396)", "sequence (P12643 283-396)": "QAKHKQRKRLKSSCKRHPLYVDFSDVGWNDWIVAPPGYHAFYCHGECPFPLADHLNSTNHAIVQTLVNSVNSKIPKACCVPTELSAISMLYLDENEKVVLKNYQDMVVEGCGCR", "assay": "cell-based or functional assay"}, "[8]": {"target": "T1, bone morphogenetic protein 7 (BMP7) (UniProt P18075 293-431)", "T1 sequence": "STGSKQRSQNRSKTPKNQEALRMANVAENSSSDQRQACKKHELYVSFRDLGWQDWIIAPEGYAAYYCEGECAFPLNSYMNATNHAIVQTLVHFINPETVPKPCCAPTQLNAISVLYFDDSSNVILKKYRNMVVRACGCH", "assay": "cell-based or functional assay"}, "[9]": {"target": "T2, bone morphogenetic protein 6 (BMP6) (UniProt P22004 375-513)", "T2 sequence": "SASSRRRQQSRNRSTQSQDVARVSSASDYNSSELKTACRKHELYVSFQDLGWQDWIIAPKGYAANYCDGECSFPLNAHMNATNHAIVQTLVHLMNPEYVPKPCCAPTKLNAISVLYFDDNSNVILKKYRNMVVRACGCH", "assay": "cell-based or functional assay"}, "[10]": {"target": "T3, growth differentiation factor 5 (GDF5) (UniProt P43026 382-501)", "T3 sequence": "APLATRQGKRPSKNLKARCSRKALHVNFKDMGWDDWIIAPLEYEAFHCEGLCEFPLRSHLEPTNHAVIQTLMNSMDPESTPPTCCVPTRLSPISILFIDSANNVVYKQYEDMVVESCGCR", "assay": "cell-based or functional assay"}, "AUC [11]": {"target": "the molecule itself", "assay": "AUC"}, "AUC [12]": {"target": "the molecule itself", "assay": "AUC", "remark": "listed apart in the source"}, "non-reducing SDS-PAGE": {"target": "the molecule itself", "assay": "non-reducing SDS-PAGE"}, "[13]": {"target": "T2, bone morphogenetic protein 6 (BMP6)", "assay": "cell-based or functional assay", "remark": "listed apart in the source"}},
  "note": "“And” between values parts separate entries of the source, which are not always exact repeats. Equal values may be shown once.",
  "data": [
    {"molecule": "ERFE CLR* (center PGP of the collagen-like repeat mutated to SSS) (from UniProt Q4G0M1 44-354) (natural protein)", "values": [
      {"measurement": "stoichiometry N", "setting": "[1]", "value": 3},
      {"measurement": "stoichiometry N", "setting": "[2]", "value": 2},
      {"measurement": "IC50 of inhibition of 2.5nM BMP6, luciferase reporter in BRITER cells", "setting": "[3]", "value": 6.1, "unit": "nM"}
    ]},
    {"molecule": "ERFE CLR*ΔC1Q (from UniProt Q4G0M1 44-207) (domain or fragment)", "values": [
      {"measurement": "percent of the protein as dimer", "setting": "ERFE CLR*ΔC1Q (human) [4]", "value": 38, "unit": "%"},
      {"measurement": "percent of the protein as monomer", "setting": "ERFE CLR*ΔC1Q (human) [4]", "value": 61, "unit": "%"},
      {"measurement": "stoichiometry N", "setting": "ERFE CLR*ΔC1Q (human) [4]", "value": 2},
      {"measurement": "stoichiometry N", "setting": "ERFE CLR*ΔC1Q (human) [5]", "value": 2},
      {"measurement": "IC50 of inhibition of 2.5nM BMP6, luciferase reporter in BRITER cells", "setting": "[3]", "value": 27, "unit": "nM"}
    ]},
    {"molecule": "ERFE D90A (natural protein) PPPGNELPRGPGESRAGPAARPPEPTAERAHSVDPRDAWMLFVRQSAKGVNGKKRSRGKAKKLKFGLPGPPGPPGPQGPPGPIIPPEALLKEFQLLLKGAVRQRERAEPEPCTCGPAGPVAASLAPVSATAGEDDDDVVGDVLALLAAPLAPGPRAPRVEAAFLCRLRRDALVERRALHELGVYYLPDAEGAFRRGPGLNLTSGQYRAPVAGFYALAATLHVALGEPPRRGPPRPRDHLRLLICIQSRCQRNASLEAIMGLESSSELFTISVNGVLYLQMGQWTSVFLDNASGCSLTVRSGSHFSAVLLGV", "values": [
      {"measurement": "IC50 of inhibition of BMP6, luciferase reporter in BRITER cells", "setting": "[6]", "value": 13, "unit": "nM"}
    ]},
    {"molecule": "ERFE N94A (natural protein) PPPGNELPRGPGESRAGPAARPPEPTAERAHSVDPRDAWMLFVRQSDKGVAGKKRSRGKAKKLKFGLPGPPGPPGPQGPPGPIIPPEALLKEFQLLLKGAVRQRERAEPEPCTCGPAGPVAASLAPVSATAGEDDDDVVGDVLALLAAPLAPGPRAPRVEAAFLCRLRRDALVERRALHELGVYYLPDAEGAFRRGPGLNLTSGQYRAPVAGFYALAATLHVALGEPPRRGPPRPRDHLRLLICIQSRCQRNASLEAIMGLESSSELFTISVNGVLYLQMGQWTSVFLDNASGCSLTVRSGSHFSAVLLGV", "values": [
      {"measurement": "IC50 of inhibition of BMP6, luciferase reporter in BRITER cells", "setting": "[6]", "value": 21, "unit": "nM"}
    ]},
    {"molecule": "erythroferrone (ERFE), wild type, N-terminally flag-tagged hERFE residues 44-354 (natural protein) PPPGNELPRGPGESRAGPAARPPEPTAERAHSVDPRDAWMLFVRQSDKGVNGKKRSRGKAKKLKFGLPGPPGPPGPQGPPGPIIPPEALLKEFQLLLKGAVRQRERAEPEPCTCGPAGPVAASLAPVSATAGEDDDDVVGDVLALLAAPLAPGPRAPRVEAAFLCRLRRDALVERRALHELGVYYLPDAEGAFRRGPGLNLTSGQYRAPVAGFYALAATLHVALGEPPRRGPPRPRDHLRLLICIQSRCQRNASLEAIMGLESSSELFTISVNGVLYLQMGQWTSVFLDNASGCSLTVRSGSHFSAVLLGV", "values": [
      {"measurement": "IC50 of ERFE inhibition of 2.5nM BMP2, BRE-luciferase reporter in BRITER cells", "setting": "[7]", "value": 170, "unit": "nM"},
      {"measurement": "IC50 of ERFE inhibition of 2.5nM BMP7, BRE-luciferase reporter in BRITER cells", "setting": "[8]", "value": 8.9, "unit": "nM"},
      {"measurement": "IC50 of ERFE inhibition of 2.5nM BMP6, BRE-luciferase reporter in BRITER cells", "setting": "[9]", "value": 5.2, "unit": "nM"},
      {"measurement": "IC50 of ERFE inhibition of 2.5nM GDF5, BRE-luciferase reporter in BRITER cells", "setting": "[10]", "value": 130, "unit": "nM"},
      {"measurement": "stoichiometry N", "setting": "AUC [11]", "value": "3 and 6"}
    ]},
    {"molecule": "ERFE ΔC1Q (stop codon at C208, entire C1Q domain removed) (domain or fragment) PPPGNELPRGPGESRAGPAARPPEPTAERAHSVDPRDAWMLFVRQSDKGVNGKKRSRGKAKKLKFGLPGPPGPPGPQGPPGPIIPPEALLKEFQLLLKGAVRQRERAEPEPCTCGPAGPVAASLAPVSATAGEDDDDVVGDVLALLAAPLAPGPRAPRVEAAFL", "values": [
      {"measurement": "stoichiometry N", "setting": "AUC [12]", "value": 3},
      {"measurement": "stoichiometry N", "setting": "non-reducing SDS-PAGE", "value": 2},
      {"measurement": "IC50 of inhibition of 2.5nM BMP6, luciferase reporter in BRITER cells", "setting": "[13]", "value": 7.8, "unit": "nM"}
    ]},
    {"molecule": "ERFE Cys*ΔC1Q (domain or fragment) PPPGNELPRGPGESRAGPAARPPEPTAERAHSVDPRDAWMLFVRQSDKGVNGKKRSRGKAKKLKFGLPGPPGPPGPQGPPGPIIPPEALLKEFQLLLKGAVRQRERAEPEPSTSGPAGPVAASLAPVSATAGEDDDDVVGDVLALLAAPLAPGPRAPRVEAAFL", "values": [
      {"measurement": "stoichiometry N", "setting": "AUC [12]", "value": 3},
      {"measurement": "IC50 of inhibition of 2.5nM BMP6, luciferase reporter in BRITER cells", "setting": "[13]", "value": 97, "unit": "nM"}
    ]},
    {"molecule": "ERFE Cys* (Cys155, 157 and 208 mutated to serines) (natural protein) PPPGNELPRGPGESRAGPAARPPEPTAERAHSVDPRDAWMLFVRQSDKGVNGKKRSRGKAKKLKFGLPGPPGPPGPQGPPGPIIPPEALLKEFQLLLKGAVRQRERAEPEPSTSGPAGPVAASLAPVSATAGEDDDDVVGDVLALLAAPLAPGPRAPRVEAAFLSRLRRDALVERRALHELGVYYLPDAEGAFRRGPGLNLTSGQYRAPVAGFYALAATLHVALGEPPRRGPPRPRDHLRLLICIQSRCQRNASLEAIMGLESSSELFTISVNGVLYLQMGQWTSVFLDNASGCSLTVRSGSHFSAVLLGV", "values": [
      {"measurement": "IC50 of inhibition of 2.5nM BMP6, luciferase reporter in BRITER cells", "setting": "[13]", "value": 8.7, "unit": "nM"},
      {"measurement": "stoichiometry N", "setting": "AUC [11]", "value": 3}
    ]}
  ]
}
